The values below come from publication PMC5554458 (Cellular signalling, 2017).

Some targets named below: PDE6C-L858V (human, UniProt P51160 1-858, L858V, farnesyl on the Cys of the C-terminal CAAX box (farnesylated PDE6C-L858V)); PDE6C-H262N (human, UniProt P51160 1-858, H262N); PDE6C-Y323N (human, UniProt P51160 1-858, Y323N).
What all share (assay): inhibition of enzyme activity

Usually Ki stands for the equilibrium dissociation constant of an inhibitor or competing ligand from its target.

PDE6C-Y323N, sequence (P51160 whole entry Y323N): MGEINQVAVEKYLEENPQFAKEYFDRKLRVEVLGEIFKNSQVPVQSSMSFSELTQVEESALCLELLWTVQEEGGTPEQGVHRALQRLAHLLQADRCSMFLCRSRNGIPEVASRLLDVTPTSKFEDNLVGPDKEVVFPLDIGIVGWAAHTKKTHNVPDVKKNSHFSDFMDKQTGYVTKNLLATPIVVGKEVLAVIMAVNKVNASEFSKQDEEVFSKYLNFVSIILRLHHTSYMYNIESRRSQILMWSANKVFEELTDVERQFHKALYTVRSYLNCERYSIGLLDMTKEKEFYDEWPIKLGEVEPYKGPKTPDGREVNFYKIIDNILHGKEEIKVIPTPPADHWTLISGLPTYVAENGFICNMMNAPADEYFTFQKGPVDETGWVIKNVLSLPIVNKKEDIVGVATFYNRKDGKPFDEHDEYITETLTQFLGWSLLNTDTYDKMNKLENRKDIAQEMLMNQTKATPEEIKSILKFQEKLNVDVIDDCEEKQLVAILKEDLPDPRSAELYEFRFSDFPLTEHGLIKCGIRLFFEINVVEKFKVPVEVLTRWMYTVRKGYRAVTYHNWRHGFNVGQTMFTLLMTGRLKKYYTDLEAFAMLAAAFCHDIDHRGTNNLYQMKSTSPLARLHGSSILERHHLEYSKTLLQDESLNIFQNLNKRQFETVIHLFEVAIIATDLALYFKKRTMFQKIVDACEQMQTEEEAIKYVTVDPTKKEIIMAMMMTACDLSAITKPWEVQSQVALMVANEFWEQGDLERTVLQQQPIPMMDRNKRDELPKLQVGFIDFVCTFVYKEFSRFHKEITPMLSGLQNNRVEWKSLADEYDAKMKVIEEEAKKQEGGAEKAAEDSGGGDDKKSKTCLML
PDE6C-H262N, sequence (P51160 whole entry H262N): as the sequence (P51160 whole entry Y323N) above, with H262N, N323Y counted along it
PDE6C-L858V, sequence (P51160 whole entry L858V): as the sequence (P51160 whole entry Y323N) above, with N323Y, L858V counted along it

B1: bovine rod Pγ (natural protein, UniProt P04972 1-87, looked up)
chain: MNLEPPKAEIRSATRVMGGPVTPRKGPPKFKQRQTRQFKSKPPKKGVQGFGDDIPGMEGLGTDITVICPWEAFNHLELHELAQYGII
On to B1, for which the Ki was 0.114 nM with PDE6C-L858V, 0.222 nM in the assay with PDE6C-H262N and 0.176 nM with PDE6C-Y323N.
